The chains are these.
T1: L-selectin (LS-Rg) (Homo sapiens, UniProt P14151 P14151:39-332)
T1 sequence: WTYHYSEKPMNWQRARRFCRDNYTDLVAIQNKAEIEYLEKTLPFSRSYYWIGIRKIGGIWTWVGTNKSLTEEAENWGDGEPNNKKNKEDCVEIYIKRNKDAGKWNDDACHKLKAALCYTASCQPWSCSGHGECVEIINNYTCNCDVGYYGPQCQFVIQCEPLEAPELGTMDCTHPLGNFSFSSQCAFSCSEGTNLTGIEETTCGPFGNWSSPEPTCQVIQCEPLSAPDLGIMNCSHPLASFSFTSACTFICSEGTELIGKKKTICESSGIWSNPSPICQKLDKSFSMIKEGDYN

T2: soluble L-selectin (Homo sapiens, UniProt P14151 P14151:39-332)
T2 sequence: T1 sequence

T3: L-selectin on PBMC / lymphocytes (Homo sapiens, UniProt P14151 P14151:39-372)
T3 sequence: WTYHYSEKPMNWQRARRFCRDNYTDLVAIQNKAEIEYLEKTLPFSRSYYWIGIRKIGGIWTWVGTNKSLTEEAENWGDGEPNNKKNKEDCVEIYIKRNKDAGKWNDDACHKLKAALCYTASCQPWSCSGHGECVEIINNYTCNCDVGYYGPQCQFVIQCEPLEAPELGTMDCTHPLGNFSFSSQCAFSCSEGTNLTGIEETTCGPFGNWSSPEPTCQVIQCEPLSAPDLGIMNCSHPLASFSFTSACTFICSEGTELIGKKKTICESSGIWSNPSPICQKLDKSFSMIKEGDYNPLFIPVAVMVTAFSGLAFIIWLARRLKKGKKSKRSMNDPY

T4: Wheat germ agglutinin (WGA) (Triticum vulgare, UniProt P10968 P10968:27-197)
T4 sequence: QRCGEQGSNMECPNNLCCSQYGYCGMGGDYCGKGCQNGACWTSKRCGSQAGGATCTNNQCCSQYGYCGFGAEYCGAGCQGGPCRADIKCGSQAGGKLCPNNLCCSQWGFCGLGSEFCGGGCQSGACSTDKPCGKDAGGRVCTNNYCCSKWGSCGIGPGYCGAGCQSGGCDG

B1: LF1808 (ssRNA)
RNA: GGGAGGACGAUGCGGCAUGGUCUUAGGCGACGCGUUUAUAUCGAGUCACCAUGCUCAGACGACUCGCCCGA
modifications: 2'-F C and U
B2: LF1527 (ssRNA)
RNA: GGGAGGACGAUGCGGACCCUCAAAUAGCGUGCAUUUCAAGCUGGUCAGACGACUCGCCCGA
modifications: 2'-F C and U
B3: LF1529 (ssRNA)
RNA: B2 RNA with G27A, C32U, A33C, C41U
modifications: 2'-F C and U
B4: LF1614 (ssRNA)
RNA: GGGAGGACGAUGCGGCAAACAAGCUCAAAUGACGUGUUUUUCAAGUCCUUGUUGUCAGACGACUCGCCCGA
modifications: 2'-F C and U
B5: LF1708 (ssRNA)
RNA: GGGAGGACGAUGCGGAUCUUAAGCAGCGCGUCAAUCGAGCUAACCCAGACGACUCGCCCGAG
modifications: 2'-F on all C and U
B6: LF1521 (ssRNA)
RNA: GAGGACGAUGCGGGCUCUUAAGCAACGUGUUAUCAAGUUAGCCCAGACGACUCGCCCGA
modifications: 2'-F C and U
B7: LF1536 (ssRNA)
RNA: GGGAAGACGAUGCGGCGCUCAAAUAAUGCGUUAAUCGAAUUCGCCCAGACGACUCGCCCGA
modifications: 2'-F C and U
B8: LF1815 (ssRNA)
RNA: GGGAGGACGAUGCGGCCAUCGGUCUUGGGCAACGCGUUUUCGAGUUACCUAUGGUCAGACGACUCGCCCGA
modifications: 2'-F C and U
B9: LF1712 (ssRNA)
RNA: GGGAGGACGAUGCGGGAUCUUAAGCAGUGCGUUAUUCGAACUAUCCCAGACGACUCGCCCGA
modifications: 2'-F C and U
B10: LF1613 (ssRNA)
RNA: GGGAGGACGAUGCGGUGCUAUUCUUAAGCGGCGUGUUUUUCAAGCCAAUAUCAUCAGACGACUCGCCCGA
modifications: 2'-F C and U
B11: LF1514 (ssRNA)
RNA: GGGAGGACGAUGCGGUACCUCAAAUUGCGUGUUUUCAAGCAGUAUCAGACGACUCGCCCGA
modifications: 2'-F C and U
B12: PF380 (ssRNA)
RNA: GGGAGACAAGAAUAAACGCUCAACGAGCAAAAGUACUCACGGGACCAGGAGAUCAGCAACACGCGAGACGAAAUUCGACAGGAGGCUCACAACAGGC
modifications: 2'-F on all C and U
B13: PF422 (ssRNA)
RNA: GGGAGACAAGAAUAAACGCUCAACGUCAAGCCAGAAUCCGGAACACGCGAGAAAACAAAUCAACGACCAAUCGAUUCGACAGGAGGCUCACAAAGGC
modifications: 2'-F on all C and U
B14: PF412 (ssRNA)
RNA: GGGAGACAAGAAUAAACGCUCAACGACCACAAUACAAACUCGUAUGGAACACGCGAGCGACAGUGACGCAUUUUCGACAGGAGGCUCACAACAGGC
modifications: 2'-F on all C and U
B15: PF386 (ssRNA)
RNA: GGGAGACAAGAAUAAACGCUCAAACAAGAGAGUCAAACCAAGUGAGAUCAGAGCGUUUAGCGCGGAAAGCACAUUCGACAGGAGGCUCACAACAGGC
modifications: 2'-F C and U
B16: PF404 (ssRNA)
RNA: GGGAGACAAGAAUAAACGCUCAAUCAGCAGUAAGCGAUCCUAUAAAGAUCAACUAGCCAAAGAUGACUUAUUCGACAGGAGGCUCACAACAGGC
modifications: 2'-F C and U
B17: PF417 (ssRNA)
RNA: GGGAGACAAGAAUAAACGCUCAAAAAGACGUAUUCGAUUCGAAACGAGAAAGACUUCAAGUGAGCCCGCAGUUCGACAGGAGGCUCACAACAGGC
modifications: 2'-F C and U
B18: PF416 (ssRNA)
RNA: GGGAGACAAGAAUAAACGCUCAACAGUUCACUCAACCGGCACCAGACUACGAUCAGCAUUGGCGAGUGAACACUUCGACAGGAGGCUCACAACAGGC
modifications: 2'-F C and U
B19: PF387 (ssRNA)
RNA: GGGAGACAAGAAUAAACGCUCAACGCACCAGGAACAACGAGAACCAUCAGUAAACGCGAGCGAUUGCAUGUUCGACAGGAGGCUCACAACAGGC
modifications: 2'-F C and U
B20: PF388 (ssRNA)
RNA: GGGAGACAAGAAUAAACGCUCAACUGGCAACGGGAUAACAACAAAUGUCACCAGCACUAGCGAGACGGAAGGUUCGACAGGAGGCUCACAACAGGC
modifications: 2'-F C and U
B21: PF398 (ssRNA)
RNA: GGGAGACAAGAAUAAACGCUCAACGAACCACGGGGAAAUCCACCAGUAACACGCGAGGCAAACAGACCCUCUUCGACAGGAGGCUCACAACAGGC
modifications: 2'-F C and U
B22: WGA ligand 6.23 (ssRNA)
RNA: GGGAAAAGCGAAUCAUACACAAGACUCGGCGGGAAUCGAAAGUGUACUGAAUUAGAACGGUGGGCCUGCUCAUCGUGCUCCGCCAGAGACCAACCGAGAA
modifications: 2'-NH2 C and U
B23: WGA ligand 6.5 (ssRNA)
RNA: GGGAAAAGCGAAUCAUACACAAGAGUCCCUAGGGAUGCAACGGGCAGCAUUCGCAUAGGAGUAAUCGGAGGUCGCUCCGCCAGAGACCAACCGAGAA
modifications: 2'-NH2 C and U
B24: WGA ligand 11.6 (ssRNA)
RNA: GGGAAAAGCGAAUCAUACACAAGACUGGGGAGCAGGAUAUGAGAUGUGCGGGGCAAUGGAGUCGUGACGAACCGCUCCGCCAGAGACCAACCGAGAA
modifications: 2'-NH2 on all C and U
B25: WGA ligand 6.9 (ssRNA)
RNA: GGGAAAAGCGAAUCAUACACAAGACUCGGCGGGAACGAAGUGUGUGAGUAACGAUCACUUGGUACUAAAAGCCCGCUCCGCCAGAGACCAACCGAGAA
modifications: 2'-NH2 on all C and U

Changes are numbered by the printed parent chain.

The first data set has as its target T1, L-selectin (LS-Rg). Description: filter; 37 C. As to conditions: tags: human IgG2 Fc fusion; chain copies: 2 (stated dimer). Here is the method:
(§1) Unless otherwise indicated, all materials used in the 2′-F RNA SELEX against the L-selectin/IgG2 chimera, LS-Rg, were identical to those of Examples 7, paragraph A and 13, paragraph A. SHMCK-140 buffer, used for all SELEX and binding experiments, was 1 mM CaCl₂, 1 mM MgCC₂, 140 mM NaCl, 5 mM KCl. and 20 mM HEPES, pH 7.4. A soluble form of L-selectin, corresponding to the extracellular domains, was purchased from R&D Systems and used for some nitrocellulose filter binding experiments.
(§2) As described in SELEX Patent Applications, a nitrocellulose filter partitioning method was used to determine the affinity of RNA ligands for LS-Rg and for other proteins. Filter discs (nitrocellulose/cellulose acetate mixed matrix, 0.45 μm pore size, Millipore) were placed on a vacuum manifold and washed with 3 ml of SHMCK 140 buffer under vacuum. Reaction mixtures, containing ³²P labeled RNA pools and unlabeled LS-Rg, were incubated in SHMCK 140 for 10-20 min at 37° C., and then immediately washed with 3 ml SHMCK 140. The filters were air-dried and counted in a Beckman LS6500 liquid scintillation counter without fluor. Alternatively, binding studies employed 96 well micro-titer manifolds essentially as described in Example 13, paragraph E.
(§3) These calculations assume two ligand binding sites per chimera.
Broadly, the Kd is the constant that tells how readily two partners part at equilibrium. Low values mean higher affinity, high ones lower affinity. Turning to B1, the affinity, expressed as Kd, was 600 pM.
On to B2, for which the dissociation constant Kd was 320 pM. Against the preceding molecule, the Kd is about 1.9-fold lower.
B3: the equilibrium dissociation constant (Kd) stood at 600 pM.
Same read-out and setting: for B4 the value was 170 pM.

Staying with this data set, now noted: tags: human IgG2 Fc fusion; chain copies: dimer; label: 32P.
For the molecule B5, the Kd came to 70000 pM.

In another data set the target is T2, soluble L-selectin. Description: filter; 37 C. As to conditions: tags: R&D Systems. Here is the method:
as §1, §2, §3
Molecule B6 returned a Kd of 250 pM.
As for B7, the dissociation constant Kd turned out to be 220 pM.
The molecule B8 gave a Kd of 180 pM.
In the case of B9, binding was characterised by a dissociation constant (Kd) of 65 pM.

For another data set, the target named is T3, L-selectin on PBMC / lymphocytes. Description: flow; competition with FITC-LD201T1.
Conditions: not given
As to the method: Binding of evolved ligands to L-selectin presented in the context of a cell surface was tested by flow cytometry experiments with human lymphocytes. Briefly, peripheral blood mononuclear cells (PBMC) were purified on histoplaque by standard techniques. […] Fluorescent staining of cells was quantified on a FACSCaliber fluorescent activated cell sorter (Becton Dickinson, San Jose, Calif.). The affinity of the 2′-F competitor was calculated from the flurorescence inhibition curves.
The ability of full length 2′-F ligands to bind to L-selectin presented in the context of a cell surface was tested by competition-flow cytometry experiments with human peripheral blood lymphocytes.
The molecule B10 yielded a Kd of 200 pM.
On to B11, for which the equilibrium dissociation constant (Kd) was found to be 800 pM.

A further data set deals with T5, P-selectin (PS-Rg) (Homo sapiens, UniProt P16109 P16109:42-321). Description: filter; 37 C, HSMC. As to conditions: tags: human IgG1 Fc fusion; chain copies: dimer; label: 32P.
T5 sequence (P16109 42-321, one chain of several): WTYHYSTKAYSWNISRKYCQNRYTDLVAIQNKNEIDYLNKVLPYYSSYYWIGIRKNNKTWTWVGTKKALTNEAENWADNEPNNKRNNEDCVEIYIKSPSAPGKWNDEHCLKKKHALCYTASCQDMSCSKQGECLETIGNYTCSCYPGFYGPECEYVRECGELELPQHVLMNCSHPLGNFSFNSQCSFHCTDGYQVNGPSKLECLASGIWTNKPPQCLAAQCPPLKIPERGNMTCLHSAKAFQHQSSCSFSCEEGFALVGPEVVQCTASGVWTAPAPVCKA
As for B12, the dissociation constant (Kd) was determined as 74.5 pM.
B13 gave a Kd of 172 pM.
As to B14, the dissociation constant (Kd) is 450 pM. This Kd lies about 2.6-fold higher than the previous one.

Another data set has as its target T5, P-selectin (PS-Rg). Nature of the data set: filter; HSMC, 37 C. As to conditions: tags: human IgG Fc fusion; chain copies: 2 (stated dimer).
Take B15: binding was characterised by a dissociation constant (Kd) of 45.5 pM. This lies in the picomolar range.
With B16, binding was put at a Kd of 47.5 pM.
In the case of B17, the affinity, expressed as Kd, was 69 pM.
B18 had a Kd of 63 pM.
Still for that read-out and setting: to B19 belongs 16 pM; to B20, 90 pM; to B21, 46 pM.

A further data set addresses T4, Wheat germ agglutinin (WGA). Nature of the data set: filter; HBSS, room temperature. As to conditions: tags: E Y Laboratories; chain copies: 2 (stated homodimer). As to the method:
As described in SEIEX patent applications, a nitrocellulose filter partitioning method was used to determine the affinity of RNA ligands for WGA and for other proteins. Filter discs (nitrocellulose/cellulose acetate mixed matrix, 0.45 μm pore size, Millipore; or pure nitrocellulose, 0.45 μm pore size, Bio-Rad) were placed on a vacuum manifold and washed with 4 ml of HBSS buffer under vacuum. Reaction mixtures, containing ³²P labeled RNA pools and unlabeled WGA, were incubated in HBSS for 10 min at room temperature, filtered, and then imnmediately washed with 4 ml HBSS. The filters were air-dried and counted in a Beckman LS6500 liquid scintillation counter without fluor.
The dissociation constants for representative members of families 1-9 and orphan ligands were determined by nitrocellulose filter binding experiments and are listed in Table 3. These calculations assume one RNA ligand binding site per WGA monomer.
The molecule B22 returned a dissociation constant (Kd) of 824000 pM.
As to B23, the equilibrium dissociation constant (Kd) was 678000 pM.

The same data set, now with this note: tags: E Y Laboratories; chain copies: homodimer; label: 32P.
For B24, the Kd was found to be 702000 pM.
Still for that read-out and setting: for B25 the value was 396000 pM.

Source of the values: US20030059769, “High affinity nucleic acid ligands to lectins” (published 2003).
